Measured values as given in patent US20250154231A1.

What was measured:
Experiment in all cases: cell-based or functional assay
[1] = biological target: SARS-CoV-2 spike (S) protein, Omicron BA.3 (SARS-CoV-2) (UniProt P0DTC2)
[2] = biological target: SARS-CoV-2 spike (S) protein, Omicron BA.4/5 (SARS-CoV-2) (UniProt P0DTC2)
[3] = biological target: SARS-CoV-2 spike (S) protein, Victoria strain (SARS-CoV-2) (UniProt P0DTC2)
[4] = biological target: SARS-CoV-2 spike (S) protein, Omicron BA.1 (SARS-CoV-2) (UniProt P0DTC2)
[5] = biological target: SARS-CoV-2 spike (S) protein, Omicron BA.2.75 (SARS-CoV-2) (UniProt P0DTC2)
[6] = biological target: SARS-CoV-2 spike (S) protein, Omicron BA.1.1 (SARS-CoV-2) (UniProt P0DTC2)
[7] = biological target: SARS-CoV-2 spike (S) protein, Omicron BA.2 (SARS-CoV-2) (UniProt P0DTC2)
[8] = biological target: SARS-CoV-2 spike (S) protein, Omicron BA.3 (SARS-CoV-2) (UniProt P0DTC2); remark: listed apart in the source
[9] = biological target: SARS-CoV-2 spike (S) protein, Omicron BA.4/5 (SARS-CoV-2) (UniProt P0DTC2); remark: listed apart in the source
[10] = biological target: SARS-CoV-2 spike (S) protein, Victoria strain (SARS-CoV-2) (UniProt P0DTC2); remark: listed apart in the source
[11] = biological target: SARS-CoV-2 spike (S) protein, Omicron BA.4.6 (SARS-CoV-2) (UniProt P0DTC2)
[12] = biological target: SARS-CoV-2 spike (S) protein, Omicron BA.1 (SARS-CoV-2) (UniProt P0DTC2); remark: listed apart in the source
[13] = biological target: SARS-CoV-2 spike (S) protein, Omicron BA.1.1 (SARS-CoV-2) (UniProt P0DTC2); remark: listed apart in the source
[14] = biological target: SARS-CoV-2 spike (S) protein, Omicron BA.2 (SARS-CoV-2) (UniProt P0DTC2); remark: listed apart in the source

## Ly-CoV1404 (antibody)
[1]
  pseudovirus neutralisation IC50: 2 ng/mL
[2]
  pseudovirus neutralisation IC50: 2 ng/mL
[3]
  pseudovirus neutralisation IC50: 1 ng/mL
[4]
  pseudovirus neutralisation IC50: 2 ng/mL
[5]
  pseudovirus neutralisation IC50: 2 ng/mL
[6]
  pseudovirus neutralisation IC50: 1 ng/mL
[7]
  pseudovirus neutralisation IC50: 1 ng/mL
[8]
  IC50, pseudoviral neutralization: 2 ng/mL
[9]
  IC50, pseudoviral neutralization: 2 ng/mL
[10]
  IC50, pseudoviral neutralization: 1 ng/mL
[11]
  IC50, pseudoviral neutralization: 1 ng/mL
[12]
  IC50, pseudoviral neutralization: 2 ng/mL
[13]
  IC50, pseudoviral neutralization: 1 ng/mL
[14]
  IC50, pseudoviral neutralization: 1 ng/mL
